Assay [1] deals with human complement component C5 protein (human). Briefly: cell-based or functional assay.
For assay [2], the target named is R38Q scFv (variant of the anti-C5 single chain antibody pexelizumab). Put plainly: Biacore SPR self-association, R38Q scFv immobilised on CM5 chip, R38Q scFv 0.6-75 µM as analyte; poor fit to the Langmuir model. For orientation: Surface plasmon resonance follows binding to a sensor surface in real time, without labels.
The target of assay [3] is human complement component C5 protein (human). Briefly: Biacore 3000 SPR, scFv immobilised on CM5 chip, C5 0.1875-24 nM as analyte, 25 C, 1:1 Langmuir model.

The Kd is the concentration at which binding is half-saturated. Higher therefore signals weaker binding. The term koff denotes a measure of how fast the partners let go of each other. Lower therefore signals slow dissociation. The kon is the rate constant with which the complex forms. Higher therefore signals fast association. The substance “R38Q scFv (variant of the anti-C5 single chain antibody pexelizumab)” came in with an inhibition of chicken erythrocyte hemolysis in about 10% normal human serum (absorbance at 415 nm), IC50 in assay [1] of 2 µg/mL. Also, in assay [2], the Kd came to 32 µM, the koff is 0.0107 s⁻¹ and the association rate constant (kon) stood at 334 M⁻¹ s⁻¹. In assay [3], this substance showed a Kd of 0.000108 µM, a koff of 6.06e-05 s⁻¹ and a kon of 559000 M⁻¹ s⁻¹.

Values taken from patent US20130273052A1.
